Results taken from paper PMC3285539 (Nature, 2012).

B4: Rpn8 (recombinant lid) (natural protein)
chain: MSLQHEKVTIAPLVLLSALDHYERTQTKENKRCVGVILGDANSSTIRVTNSFALPFEEDEKNSDVWFLDHNYIENMNEMCKKINAKEKLIGWYHSGPKLRASDLKINELFKKYTQNNPLLLIVDVKQQGVGLPTDAYVAIEQVKDDGTSTEKTFLHLPCTIEAEEAEEIGVEHLLRDVRDQAAGGLSIRLTNQLKSLKGLQSKLKDVVEYLDKVINKELPINHTILGKLQDVFNLLPNLGTPDDDEIDVENHDRINISNNLQKALTVKTNDELMVIYISNLVRSIIAFDDLIENKIQNKKIQEQRVKDKQSKVSDDSESESGDKEATAPLIQRKNKKN
B5: Rpt6 (natural protein)
chain: MTAAVTSSNIVLETHESGIKPYFEQKIQETELKIRSKTENVRRLEAQRNALNDKVRFIKDELRLLQEPGSYVGEVIKIVSDKKVLVKVQPEGKYIVDVAKDINVKDLKASQRVCLRSDSYMLHKVLENKADPLVSLMMVEKVPDSTYDMVGGLTKQIKEIKEVIELPVKHPELFESLGIAQPKGVILYGPPGTGKTLLARAVAHHTDCKFIRVSGAELVQKYIGEGSRMVRELFVMAREHAPSIIFMDEIDSIGSTRVEGSGGGDSEVQRTMLELLNQLDGFETSKNIKIIMATNRLDILDPALLRPGRIDRKIEFPPPSVAARAEILRIHSRKMNLTRGINLRKVAEKMNGCSGADVKGVCTEAGMYALRERRIHVTQEDFELAVGKVMNKNQETAISVAKLFK

What was measured:
Rpt5 = molecular target: T1, Rpt5 (S. cerevisiae, UniProt P33297 1-434); experiment: cryo-EM structure
T1 sequence: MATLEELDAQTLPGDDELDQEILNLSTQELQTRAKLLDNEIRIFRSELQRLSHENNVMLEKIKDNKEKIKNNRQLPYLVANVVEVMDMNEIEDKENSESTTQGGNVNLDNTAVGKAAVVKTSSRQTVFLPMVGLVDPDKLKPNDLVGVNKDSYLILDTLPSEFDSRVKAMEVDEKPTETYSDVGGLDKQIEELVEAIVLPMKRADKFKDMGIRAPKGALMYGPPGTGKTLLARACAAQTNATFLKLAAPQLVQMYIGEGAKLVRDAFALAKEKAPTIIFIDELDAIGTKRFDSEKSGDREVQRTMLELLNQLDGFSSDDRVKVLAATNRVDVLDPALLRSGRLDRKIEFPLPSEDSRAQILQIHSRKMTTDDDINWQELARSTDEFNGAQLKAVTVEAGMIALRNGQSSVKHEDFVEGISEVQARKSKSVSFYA

Rpn8 (recombinant lid) = molecular target: B4; experiment: negative-stain electron microscopy, 3D reconstruction
Rpn5 (recombinant lid) = molecular target: T2, Rpn5 (recombinant lid) (S. cerevisiae, UniProt Q12250 1-445); experiment: as above
T2 sequence: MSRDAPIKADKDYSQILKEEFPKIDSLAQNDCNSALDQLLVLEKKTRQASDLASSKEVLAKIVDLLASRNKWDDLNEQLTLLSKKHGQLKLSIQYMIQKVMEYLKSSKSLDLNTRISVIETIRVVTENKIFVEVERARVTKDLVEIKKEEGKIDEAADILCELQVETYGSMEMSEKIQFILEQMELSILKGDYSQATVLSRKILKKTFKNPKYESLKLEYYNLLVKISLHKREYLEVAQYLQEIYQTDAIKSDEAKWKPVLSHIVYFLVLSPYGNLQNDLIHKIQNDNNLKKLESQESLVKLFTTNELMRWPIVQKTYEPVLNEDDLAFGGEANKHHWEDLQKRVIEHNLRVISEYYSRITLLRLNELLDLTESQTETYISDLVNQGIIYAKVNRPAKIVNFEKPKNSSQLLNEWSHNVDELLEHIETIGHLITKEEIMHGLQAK

Rpt6 = molecular target: B5; experiment: cryo-EM structure
Rpt3 = molecular target: T3, Rpt3 (S. cerevisiae, UniProt P33298 1-428); experiment: cryo-EM structure
T3 sequence: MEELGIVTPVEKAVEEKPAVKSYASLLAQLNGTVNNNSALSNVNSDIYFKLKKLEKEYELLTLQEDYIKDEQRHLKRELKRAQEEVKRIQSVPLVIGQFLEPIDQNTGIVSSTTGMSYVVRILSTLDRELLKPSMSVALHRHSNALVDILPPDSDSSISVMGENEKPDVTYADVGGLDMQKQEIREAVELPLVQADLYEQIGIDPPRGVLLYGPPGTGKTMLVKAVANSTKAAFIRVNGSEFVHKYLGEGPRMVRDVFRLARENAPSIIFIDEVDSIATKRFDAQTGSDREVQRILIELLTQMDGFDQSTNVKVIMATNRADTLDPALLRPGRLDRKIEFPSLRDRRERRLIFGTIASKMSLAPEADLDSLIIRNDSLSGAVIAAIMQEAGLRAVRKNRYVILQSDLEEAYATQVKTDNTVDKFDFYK

Rpn9 (recombinant lid) = molecular target: T4, Rpn9 (recombinant lid) (S. cerevisiae, UniProt Q04062 1-393); experiment: negative-stain electron microscopy, 3D reconstruction
T4 sequence: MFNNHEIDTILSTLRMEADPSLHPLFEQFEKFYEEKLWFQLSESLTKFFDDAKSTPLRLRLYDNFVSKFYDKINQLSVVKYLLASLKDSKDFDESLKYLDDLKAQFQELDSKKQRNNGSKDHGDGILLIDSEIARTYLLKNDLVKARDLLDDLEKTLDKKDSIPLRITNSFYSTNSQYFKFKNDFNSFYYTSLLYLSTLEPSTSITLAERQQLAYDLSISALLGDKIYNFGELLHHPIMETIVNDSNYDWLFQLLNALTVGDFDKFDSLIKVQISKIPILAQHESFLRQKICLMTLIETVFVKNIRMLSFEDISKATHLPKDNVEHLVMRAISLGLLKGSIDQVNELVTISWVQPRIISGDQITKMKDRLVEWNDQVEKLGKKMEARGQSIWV

Rpn2 = molecular target: T5, Rpn2 (S. cerevisiae, UniProt P32565 1-945); experiment: cryo-EM structure
T5 sequence: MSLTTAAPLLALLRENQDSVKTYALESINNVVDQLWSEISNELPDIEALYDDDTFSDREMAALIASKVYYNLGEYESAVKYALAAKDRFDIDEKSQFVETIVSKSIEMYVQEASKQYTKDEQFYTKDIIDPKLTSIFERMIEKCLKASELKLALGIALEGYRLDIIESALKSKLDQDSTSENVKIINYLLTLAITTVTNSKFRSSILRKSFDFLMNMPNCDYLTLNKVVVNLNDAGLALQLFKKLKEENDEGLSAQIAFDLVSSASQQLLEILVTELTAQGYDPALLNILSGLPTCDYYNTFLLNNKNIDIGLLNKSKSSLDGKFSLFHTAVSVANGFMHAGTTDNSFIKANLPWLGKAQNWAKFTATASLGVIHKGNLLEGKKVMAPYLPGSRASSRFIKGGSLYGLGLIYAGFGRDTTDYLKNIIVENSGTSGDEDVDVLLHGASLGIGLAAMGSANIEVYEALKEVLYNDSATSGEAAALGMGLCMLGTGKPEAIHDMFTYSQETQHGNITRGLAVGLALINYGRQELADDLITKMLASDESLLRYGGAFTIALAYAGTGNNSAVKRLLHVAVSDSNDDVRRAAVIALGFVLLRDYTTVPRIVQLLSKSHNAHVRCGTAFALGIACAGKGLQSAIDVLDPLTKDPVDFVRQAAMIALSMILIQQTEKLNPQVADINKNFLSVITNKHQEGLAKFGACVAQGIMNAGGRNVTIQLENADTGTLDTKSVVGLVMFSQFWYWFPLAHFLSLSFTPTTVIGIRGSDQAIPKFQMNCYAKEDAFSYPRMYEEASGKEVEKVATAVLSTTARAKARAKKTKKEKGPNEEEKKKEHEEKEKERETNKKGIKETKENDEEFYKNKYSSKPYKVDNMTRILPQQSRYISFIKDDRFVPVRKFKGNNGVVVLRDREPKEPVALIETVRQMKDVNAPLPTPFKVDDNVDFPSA

Rpn7 = molecular target: T6, Rpn7 (S. cerevisiae, UniProt Q06103 1-429); experiment: cryo-EM structure
T6 sequence: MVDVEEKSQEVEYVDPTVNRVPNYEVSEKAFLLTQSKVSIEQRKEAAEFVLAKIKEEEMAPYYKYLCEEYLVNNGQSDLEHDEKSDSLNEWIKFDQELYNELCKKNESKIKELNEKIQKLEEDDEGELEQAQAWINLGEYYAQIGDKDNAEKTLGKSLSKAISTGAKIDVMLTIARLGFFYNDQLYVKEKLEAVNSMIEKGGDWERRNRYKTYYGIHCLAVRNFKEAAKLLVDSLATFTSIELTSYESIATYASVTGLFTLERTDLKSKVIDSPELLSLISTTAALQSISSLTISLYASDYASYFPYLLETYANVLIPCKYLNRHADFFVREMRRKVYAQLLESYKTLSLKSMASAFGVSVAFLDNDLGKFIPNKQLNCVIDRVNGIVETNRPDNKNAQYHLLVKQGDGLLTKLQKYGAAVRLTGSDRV

B1: 20S core subunit α6 (natural protein)
chain: MFRNNYDGDTVTFSPTGRLFQVEYALEAIKQGSVTVGLRSNTHAVLVALKRNADELSSYQKKIIKCDEHMGLSLAGLAPDARVLSNYLRQQCNYSSLVFNRKLAVERAGHLLCDKAQKNTQSYGGRPYGVGLLIIGYDKSGAHLLEFQPSGNVTELYGTAIGARSQGAKTYLERTLDTFIKIDGNPDELIKAGVEAISQSLRDESLTVDNLSIAIVGKDTPFTIYDGEAVAKYI
B1: binds (Rpt5).

B2: Rpn11-6xHis (recombinant lid) (enzyme)
chain: MERLQRLMMNSKVGSADTGRDDTKETVYISSIALLKMLKHGRAGVPMEVMGLMLGEFVDDYTVNVVDVFAMPQSGTGVSVEAVDDVFQAKMMDMLKQTGRDQMVVGWYHSHPGFGCWLSSVDVNTQKSFEQLNSRAVAVVVDPIQSVKGKVVIDAFRLIDTGALINNLEPRQTTSNTGLLNKANIQALIHGLNRHYYSLNIDYHKTAKETKMLMNLHKEQWQSGLKMYDYEEKEESNLAATKSMVKIAEQYSKRIEEEKELTEEELKTRYVGRQDPKKHLSETADETLENNIVSVLTAGVNSVAIK
B2: binds (Rpn8 (recombinant lid)); binds (Rpn5 (recombinant lid)).

B3: Rpn8 (natural protein)
chain: MSLQHEKVTIAPLVLLSALDHYERTQTKENKRCVGVILGDANSSTIRVTNSFALPFEEDEKNSDVWFLDHNYIENMNEMCKKINAKEKLIGWYHSGPKLRASDLKINELFKKYTQNNPLLLIVDVKQQGVGLPTDAYVAIEQVKDDGTSTEKTFLHLPCTIEAEEAEEIGVEHLLRDVRDQAAGGLSIRLTNQLKSLKGLQSKLKDVVEYLDKVINKELPINHTILGKLQDVFNLLPNLGTPDDDEIDVENHDRINISNNLQKALTVKTNDELMVIYISNLVRSIIAFDDLIENKIQNKKIQEQRVKDKQSKVSDDSESESGDKEATAPLIQRKNKKN
B3: binds (Rpt6); binds (Rpt3).

B4: binds (Rpn9 (recombinant lid)).

B5: binds (Rpn2); binds (Rpn7).
